# Assay results reported in US20180057595A1 (CELLDEX THERAPEUTICS, published 2018).
# What was measured:
# [1] = target: MET without the 47 amino acids encoded by exon 14 (H596 cells) (human) (UniProt P08581); test: cell-based or functional assay
# [2] = target: human MET, cell-surface expressed (human, UniProt P08581 25-1390); test: cell-based or functional assay
# [3] = target: T1, murine MET-ECD (murine, UniProt P16056 25-931); test: ELISA on coated murine MET-ECD
# T1 construct: extracellular domain; also called mouse cMET ECD
# Description: To measure antibody binding by ELISA, 10 μg of human, murine or chimeric MET-ECD was coated onto 96-well plates (Costar). Serial dilutions of antibodies were added to the plates and incubated at room temperature for 1 hr prior to the addition of HRP-conjugated secondary antibody. Luminescence was measured with BioTek SYNERGY™ HT plate reader, and binding EC₅₀ values were determined using […] PRISM® software.
# [4] = target: T2, mouse MET on MS1 cells (mouse, UniProt P16056 25-1379); test: FACS, serial dilutions of Alexa647-labelled antibody on MS1 cells
# T2 construct: whole, on cells; also called Murine (MS1)
# Description: (§1) To measure antibody binding affinities against cell surface receptor, antibodies were labeled with the Alexa647 antibody labeling kit and purified per manufacturer's instruction (Invitrogen). A549 (human), 4MBr5 (monkey), MDCK (canine), and MS1 (murine) cells were resuspended in pre-chilled FACS buffer, incubated on ice for 1 hr and distributed to 96-well plates at 10⁵ cell/well. Serial dilutions of labeled antibodies were added to each well and incubated on ice for 4 hrs to allow antibody binding to reach equilibrium. Mean fluorescence intensity was analyzed using a FACS reader (ACCURI™-C6; BD Biosciences), and apparent binding affinities were determined using […] PRISM® software.
# [5] = target: T3, dog MET on MDCK cells (dog, UniProt Q75ZY9 25-1382); test: FACS, serial dilutions of Alexa647-labelled antibody on MDCK cells
# T3 construct: whole, on cells; also called Canine (MDCK)
# Description: as §1
# [6] = target: T4, hMET R331K/S336N (human, UniProt P08581 25-1390); test: flow cytometry on transfected CHO cells (ND = not detectable)
# T4 construct: whole, on cells; also called human to canine
# Description: (§2) This surface-exposed cluster in the human MET (hMET) protein was replaced with corresponding amino acids from canine or murine MET. hMET mutants were then transfected into CHO cells and antibody binding affinity was measured by flow cytometry.
# [7] = target: T5, hMET Q328H/R331K/S336N (human, UniProt P08581 25-1390); test: as above
# T5 construct: whole, on cells; also called human to canine
# Description: as §2
# [8] = target: T6, hMET R331K/L337P (human, UniProt P08581 25-1390); test: as above
# T6 construct: whole, on cells; also called human to murine
# Description: as §2
# [9] = target: T7, hMET Q328N/R331K/L337P/N338S (human, UniProt P08581 25-1390); test: as above
# T7 construct: whole, on cells; also called human to murine
# Description: as §2
# T1 sequence (P16056 25-931): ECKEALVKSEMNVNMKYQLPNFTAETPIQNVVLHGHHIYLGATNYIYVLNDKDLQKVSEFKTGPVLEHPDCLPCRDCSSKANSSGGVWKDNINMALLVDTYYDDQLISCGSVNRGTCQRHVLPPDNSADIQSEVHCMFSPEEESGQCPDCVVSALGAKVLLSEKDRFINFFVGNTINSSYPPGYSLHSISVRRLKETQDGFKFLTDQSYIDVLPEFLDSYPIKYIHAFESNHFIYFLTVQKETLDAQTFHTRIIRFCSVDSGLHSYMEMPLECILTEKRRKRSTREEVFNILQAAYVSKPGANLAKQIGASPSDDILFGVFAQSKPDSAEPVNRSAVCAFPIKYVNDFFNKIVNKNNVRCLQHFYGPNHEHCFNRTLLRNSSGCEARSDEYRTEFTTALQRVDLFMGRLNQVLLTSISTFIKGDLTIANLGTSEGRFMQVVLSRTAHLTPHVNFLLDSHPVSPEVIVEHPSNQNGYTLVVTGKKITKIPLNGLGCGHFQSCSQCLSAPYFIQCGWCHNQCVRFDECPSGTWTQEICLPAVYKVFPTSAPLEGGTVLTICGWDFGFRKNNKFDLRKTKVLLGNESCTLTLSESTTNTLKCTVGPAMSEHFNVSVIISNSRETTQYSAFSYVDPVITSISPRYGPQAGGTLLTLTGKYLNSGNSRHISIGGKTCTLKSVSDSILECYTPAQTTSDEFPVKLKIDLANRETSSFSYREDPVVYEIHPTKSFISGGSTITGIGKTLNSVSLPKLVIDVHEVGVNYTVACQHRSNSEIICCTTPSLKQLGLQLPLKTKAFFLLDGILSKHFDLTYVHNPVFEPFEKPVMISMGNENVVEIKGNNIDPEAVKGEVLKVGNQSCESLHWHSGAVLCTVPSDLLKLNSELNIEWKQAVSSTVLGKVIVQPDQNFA
# T2 sequence (P16056 25-1379): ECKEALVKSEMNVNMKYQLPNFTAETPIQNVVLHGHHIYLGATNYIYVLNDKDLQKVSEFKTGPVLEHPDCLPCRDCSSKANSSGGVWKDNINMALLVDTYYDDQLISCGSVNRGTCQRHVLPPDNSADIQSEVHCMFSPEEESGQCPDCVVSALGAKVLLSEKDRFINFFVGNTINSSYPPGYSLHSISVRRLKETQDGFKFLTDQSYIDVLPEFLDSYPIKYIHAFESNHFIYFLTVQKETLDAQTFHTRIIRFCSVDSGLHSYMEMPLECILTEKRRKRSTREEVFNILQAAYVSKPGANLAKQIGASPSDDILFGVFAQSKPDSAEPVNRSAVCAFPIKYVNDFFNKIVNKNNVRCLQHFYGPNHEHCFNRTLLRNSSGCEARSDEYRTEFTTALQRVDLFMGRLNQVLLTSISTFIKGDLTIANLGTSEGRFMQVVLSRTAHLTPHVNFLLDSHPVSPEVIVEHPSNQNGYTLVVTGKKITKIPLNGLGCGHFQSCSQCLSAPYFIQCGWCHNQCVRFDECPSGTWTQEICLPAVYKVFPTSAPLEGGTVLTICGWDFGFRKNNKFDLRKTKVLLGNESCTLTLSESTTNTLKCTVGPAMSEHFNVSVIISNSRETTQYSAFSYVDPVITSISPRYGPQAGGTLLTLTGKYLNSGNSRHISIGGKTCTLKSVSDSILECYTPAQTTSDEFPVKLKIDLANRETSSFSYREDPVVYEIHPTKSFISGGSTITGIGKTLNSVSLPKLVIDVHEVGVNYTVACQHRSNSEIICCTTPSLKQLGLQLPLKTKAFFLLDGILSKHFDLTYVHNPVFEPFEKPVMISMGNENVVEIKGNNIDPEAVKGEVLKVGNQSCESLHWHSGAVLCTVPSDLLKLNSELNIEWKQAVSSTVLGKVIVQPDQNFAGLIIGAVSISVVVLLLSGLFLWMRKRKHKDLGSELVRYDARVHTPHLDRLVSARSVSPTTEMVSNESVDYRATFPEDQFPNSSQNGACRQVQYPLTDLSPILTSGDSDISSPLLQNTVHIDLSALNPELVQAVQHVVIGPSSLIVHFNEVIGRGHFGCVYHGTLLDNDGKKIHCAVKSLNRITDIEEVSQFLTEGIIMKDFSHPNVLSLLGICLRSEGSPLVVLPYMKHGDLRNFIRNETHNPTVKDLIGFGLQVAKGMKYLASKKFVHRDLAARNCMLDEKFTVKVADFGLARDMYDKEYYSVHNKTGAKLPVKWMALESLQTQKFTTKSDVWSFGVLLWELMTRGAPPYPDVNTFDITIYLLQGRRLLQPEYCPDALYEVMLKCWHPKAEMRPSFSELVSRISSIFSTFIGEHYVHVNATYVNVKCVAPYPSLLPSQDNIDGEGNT
# T3 sequence (Q75ZY9 25-1382): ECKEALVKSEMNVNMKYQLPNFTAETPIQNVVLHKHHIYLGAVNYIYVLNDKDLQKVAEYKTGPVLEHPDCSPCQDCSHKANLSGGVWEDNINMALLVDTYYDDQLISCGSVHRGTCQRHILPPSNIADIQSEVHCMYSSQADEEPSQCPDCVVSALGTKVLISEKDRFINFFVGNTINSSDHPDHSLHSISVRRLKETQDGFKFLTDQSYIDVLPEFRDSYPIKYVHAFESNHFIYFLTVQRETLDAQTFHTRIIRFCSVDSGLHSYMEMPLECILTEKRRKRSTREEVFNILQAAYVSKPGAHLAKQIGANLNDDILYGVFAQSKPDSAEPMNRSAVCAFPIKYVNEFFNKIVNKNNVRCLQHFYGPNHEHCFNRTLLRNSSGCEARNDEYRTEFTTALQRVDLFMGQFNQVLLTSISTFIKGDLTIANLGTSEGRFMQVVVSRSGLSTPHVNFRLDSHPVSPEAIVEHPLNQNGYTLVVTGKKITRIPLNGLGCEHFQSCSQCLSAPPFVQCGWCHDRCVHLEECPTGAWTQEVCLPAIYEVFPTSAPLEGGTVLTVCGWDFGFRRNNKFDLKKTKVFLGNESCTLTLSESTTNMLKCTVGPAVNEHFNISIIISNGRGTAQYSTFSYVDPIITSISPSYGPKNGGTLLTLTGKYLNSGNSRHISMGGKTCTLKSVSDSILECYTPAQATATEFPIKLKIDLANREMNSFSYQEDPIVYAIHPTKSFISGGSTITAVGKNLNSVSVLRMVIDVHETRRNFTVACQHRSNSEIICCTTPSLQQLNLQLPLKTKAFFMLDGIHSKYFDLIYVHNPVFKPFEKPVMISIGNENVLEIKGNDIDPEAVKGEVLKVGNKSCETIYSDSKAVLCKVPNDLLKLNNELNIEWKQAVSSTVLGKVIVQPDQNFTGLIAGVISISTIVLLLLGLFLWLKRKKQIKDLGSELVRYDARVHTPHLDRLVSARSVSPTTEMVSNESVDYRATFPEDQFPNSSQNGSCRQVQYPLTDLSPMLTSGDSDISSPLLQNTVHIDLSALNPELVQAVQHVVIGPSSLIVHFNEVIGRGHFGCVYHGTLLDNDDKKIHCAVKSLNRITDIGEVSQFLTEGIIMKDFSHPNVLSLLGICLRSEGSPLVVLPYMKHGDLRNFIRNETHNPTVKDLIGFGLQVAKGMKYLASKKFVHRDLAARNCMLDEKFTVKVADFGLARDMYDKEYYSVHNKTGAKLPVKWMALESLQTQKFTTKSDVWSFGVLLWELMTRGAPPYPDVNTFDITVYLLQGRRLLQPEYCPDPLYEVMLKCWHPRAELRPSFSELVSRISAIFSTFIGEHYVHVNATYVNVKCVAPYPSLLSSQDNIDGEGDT
maximal percent induction of MET degradation in SNU-5 cells [2],percent inhibition of MET phosphorylation in SNU-5 cells [2],binding result [3],binding result [4],binding result [5],Molecule,further results
36%,33%,,,,"Ab239C (antibody, human IgG1, V domains shown) VH: EVQLVESGGGLVQPGRSLKLSCAASGFSFTDCYMAWVRQAPTKGLEWVASISSDGGGTYYRDSVKGRFTISRDNARSSLYLEMDSLRSEDTATYYCTTERYYDGTYYGYWYFDFWGPGTMVTVSA VL: GQFTLTQPKSVSGSLRSTITIPCVRSSGDIGDRYVSWYQQRLGRPPLNVIYAADQRPSEVSDRFSGSIDSSSNSASLTITDLQMDDEADYFCQSYDSNIDIVFGGGTKLEIKR",
75%,75%,,,,"Ab239C-IgG2 (antibody, V domains shown) VH: EVQLVESGGGLVQPGRSLKLSCAASGFSFTDCYMAWVRQAPTKGLEWVASISSDGGGTYYRDSVKGRFTISRDNARSSLYLEMDSLRSEDTATYYCTTERYYDGTYYGYWYFDFWGPGTMVTVSA VL: GQFTLTQPKSVSGSLRSTITIPCVRSSGDIGDRYVSWYQQRLGRPPLNVIYAADQRPSEVSDRFSGSIDSSSNSASLTITDLQMDDEADYFCQSYDSNIDIVFGGGTKLEIKR",
,,no binding,no binding,no binding,"Ab239 (antibody, rat IgG2a, V domains shown, Rat IgG2a, lambda) VH: EVQLVESGGGLVQPGRSLKLSCAASGFSFTDCYMAWVRQAPTKGLEWVASISSDGGGTYYRDSVKGRFTISRDNARSSLYLEMDSLRSEDTATYYCTTERYYDGTYYGYWYFDFWGPGTMVTVSA VL: GQFTLTQPKSVSGSLRSTITIPCVRSSGDIGDRYVSWYQQRLGRPPLNVIYAADQRPSEVSDRFSGSIDSSSNSASLTITDLQMDDEADYFCQSYDSNIDIVFGGGTKLEIKR",
,,no binding,no binding,no binding,"Ab237 (antibody, rat IgG2a, V domains shown, Rat IgG2a, kappa) VH: EVQLVESGGGLVQPGRSLKLSCAASGFTFSDSYMAWVRQAPTKGLEWVASISSDGGGTYYRDSVKGRFSISRDNAKSSLYLQMDSLRSEDTATYYCTTEGIYTTDYYPYCFNYWGHGVMVTVSA VL: DIQMTQSPGSLSASLGETVTIECLASADIHSNLAWYQQKPGNSPQLLIYYGNNLNDGVPSRFSGSGSGTQYSLKINSLQSEDVSIYFCQQSYDSPPTFGAGTKLEIKR",binding result [6]: no binding; binding result [7]: no binding; binding result [8]: no binding; binding result [9]: no binding
,,no binding,no binding,no binding,"Ab235 (antibody, mouse IgG1, V domains shown, Mouse IgG1, kappa) VH: QVQLQQSGAELMKPGASVKISCKATGYTFSNYWIEWVKQRPGHGLEWIGEILPGSDYTKYNEKFKGKATFTADTSSNTAYMQLSSLTSEDSAVYYCARPSTIPPDCWGQGTTLTVSA VL: QIVLTQSPAIMSTSPGEKVTMTCSASSSVNYMFWYQQKAGSSPRLLIYDTFNLASGVPVRFSGSGSGTSYSLTISRMEAEDAATYYCQQWSIYPYTFGGGTKLEIKR",
,,no binding,no binding,no binding,"Ab236 (antibody, mouse IgG1, V domains shown, Mouse IgG1, kappa) VH: QAQLQQSGAELMKPGASVKISCKATGYIFSSYWIEWVKQRPGHGLEWIGEILPGSDFIKYSEKFKGKATFTADTSSNTAYMQLSNLTSEDSAVYYCARPSTVPPDCWGQGTTLTVSA VL: QIVLTQSPAIMSASPGEKVTMTCSASSSVSYMFWYQQKPGSSPRLLIYDTSDLASGVPVRFSGSGSGTSYSLTISRMEAEDAATYYCQQWSNYPYTFGGGTKLEIKR",
,,no binding,no binding,no binding,"Ab238 (antibody, rat IgG2a, V domains shown, Rat IgG2a, kappa) VH: QVTLKESGPGILQPSQTLSLTCTFSGFSLSTYGMGVAWIRQPSGKDLEWLANIWWDDVNYSNPSLKNRLTISKDTSNNQVFLQITNVDTAETATYYCARIGTSHIVDAWGQGASVTVSA VL: DIRMTQSPASLSASLGETVNIECLASEDIYSDLAWYQQKPGKSPQLLIYNANTLQNGVPSVFSGSGSGTQYSLKINNLHSEDVATYFCQQYNNYPPTFGGGTKLEIKR",binding result [6]: no binding; binding result [7]: no binding; binding result [8]: no binding; binding result [9]: no binding
35%,24%,,,,"Ab238C-IgG2 (antibody, V domains shown) VH: QVTLKESGPGILQPSQTLSLTCTFSGFSLSTYGMGVAWIRQPSGKDLEWLANIWWDDVNYSNPSLKNRLTISKDTSNNQVFLQITNVDTAETATYYCARIGTSHIVDAWGQGASVTVSA VL: DIRMTQSPASLSASLGETVNIECLASEDIYSDLAWYQQKPGKSPQLLIYNANTLQNGVPSVFSGSGSGTQYSLKINNLHSEDVATYFCQQYNNYPPTFGGGTKLEIKR",

# Second part, the molecule before the results:
Molecule,maximal percent induction of MET degradation in SNU-5 cells [2],percent inhibition of MET phosphorylation in SNU-5 cells [2],binding result [3],binding result [4],binding result [5],further results
HGF (from UniProt P14210 32-728) (ligand),,,,,,"receptor degradation, H596 cells, 1 nM HGF for 24 hrs [1]: 30%; receptor degradation, cell lines expressing wild-type MET such as A549 and U87MG, 1 nM HGF [2]: 80%"
"Ab237C-IgG2 (antibody, V domains shown) VH: EVQLVESGGGLVQPGRSLKLSCAASGFTFSDSYMAWVRQAPTKGLEWVASISSDGGGTYYRDSVKGRFSISRDNAKSSLYLQMDSLRSEDTATYYCTTEGIYTTDYYPYCFNYWGHGVMVTVSA VL: DIQMTQSPGSLSASLGETVTIECLASADIHSNLAWYQQKPGNSPQLLIYYGNNLNDGVPSRFSGSGSGTQYSLKINSLQSEDVSIYFCQQSYDSPPTFGAGTKLEIKR",81%,72%,,,,
"Ab235C (antibody, human IgG1, V domains shown) VH: QVQLQQSGAELMKPGASVKISCKATGYTFSNYWIEWVKQRPGHGLEWIGEILPGSDYTKYNEKFKGKATFTADTSSNTAYMQLSSLTSEDSAVYYCARPSTIPPDCWGQGTTLTVSA VL: QIVLTQSPAIMSTSPGEKVTMTCSASSSVNYMFWYQQKAGSSPRLLIYDTFNLASGVPVRFSGSGSGTSYSLTISRMEAEDAATYYCQQWSIYPYTFGGGTKLEIKR",6%,10%,,,,
"Ab235C-IgG2 (antibody, V domains shown) VH: QVQLQQSGAELMKPGASVKISCKATGYTFSNYWIEWVKQRPGHGLEWIGEILPGSDYTKYNEKFKGKATFTADTSSNTAYMQLSSLTSEDSAVYYCARPSTIPPDCWGQGTTLTVSA VL: QIVLTQSPAIMSTSPGEKVTMTCSASSSVNYMFWYQQKAGSSPRLLIYDTFNLASGVPVRFSGSGSGTSYSLTISRMEAEDAATYYCQQWSIYPYTFGGGTKLEIKR",64%,64%,,,,
"Ab236C-IgG2 (antibody, V domains shown) VH: QAQLQQSGAELMKPGASVKISCKATGYIFSSYWIEWVKQRPGHGLEWIGEILPGSDFIKYSEKFKGKATFTADTSSNTAYMQLSNLTSEDSAVYYCARPSTVPPDCWGQGTTLTVSA VL: QIVLTQSPAIMSASPGEKVTMTCSASSSVSYMFWYQQKPGSSPRLLIYDTSDLASGVPVRFSGSGSGTSYSLTISRMEAEDAATYYCQQWSNYPYTFGGGTKLEIKR",69%,75%,,,,
"Ab236C (antibody, human IgG1, V domains shown) VH: QAQLQQSGAELMKPGASVKISCKATGYIFSSYWIEWVKQRPGHGLEWIGEILPGSDFIKYSEKFKGKATFTADTSSNTAYMQLSNLTSEDSAVYYCARPSTVPPDCWGQGTTLTVSA VL: QIVLTQSPAIMSASPGEKVTMTCSASSSVSYMFWYQQKPGSSPRLLIYDTSDLASGVPVRFSGSGSGTSYSLTISRMEAEDAATYYCQQWSNYPYTFGGGTKLEIKR",19%,17%,,,,
"Ab238C (antibody, human IgG1, V domains shown) VH: QVTLKESGPGILQPSQTLSLTCTFSGFSLSTYGMGVAWIRQPSGKDLEWLANIWWDDVNYSNPSLKNRLTISKDTSNNQVFLQITNVDTAETATYYCARIGTSHIVDAWGQGASVTVSA VL: DIRMTQSPASLSASLGETVNIECLASEDIYSDLAWYQQKPGKSPQLLIYNANTLQNGVPSVFSGSGSGTQYSLKINNLHSEDVATYFCQQYNNYPPTFGGGTKLEIKR",39%,19%,,,,
